In article PMC6356446 one finds percent suppression of HGF-FITC binding on the cell surface data, which are given here for one molecule.

The experiment concerns the target c-Met (human (endogenous in HCC413)), P08581. Kind of experiment: flow cytometry on cells; HCC413 cells treated with EGF-FITC or HGF-FITC alone or with unlabeled LZ-8 for 15 min; fixed; relative mean fluorescence intensity. Particulars: remark: other sources report otherwise. (In general: A flow cytometer gives signals particle by particle.)

c-Met (human (endogenous in HCC413)), P08581, sequence (P08581 25-1390): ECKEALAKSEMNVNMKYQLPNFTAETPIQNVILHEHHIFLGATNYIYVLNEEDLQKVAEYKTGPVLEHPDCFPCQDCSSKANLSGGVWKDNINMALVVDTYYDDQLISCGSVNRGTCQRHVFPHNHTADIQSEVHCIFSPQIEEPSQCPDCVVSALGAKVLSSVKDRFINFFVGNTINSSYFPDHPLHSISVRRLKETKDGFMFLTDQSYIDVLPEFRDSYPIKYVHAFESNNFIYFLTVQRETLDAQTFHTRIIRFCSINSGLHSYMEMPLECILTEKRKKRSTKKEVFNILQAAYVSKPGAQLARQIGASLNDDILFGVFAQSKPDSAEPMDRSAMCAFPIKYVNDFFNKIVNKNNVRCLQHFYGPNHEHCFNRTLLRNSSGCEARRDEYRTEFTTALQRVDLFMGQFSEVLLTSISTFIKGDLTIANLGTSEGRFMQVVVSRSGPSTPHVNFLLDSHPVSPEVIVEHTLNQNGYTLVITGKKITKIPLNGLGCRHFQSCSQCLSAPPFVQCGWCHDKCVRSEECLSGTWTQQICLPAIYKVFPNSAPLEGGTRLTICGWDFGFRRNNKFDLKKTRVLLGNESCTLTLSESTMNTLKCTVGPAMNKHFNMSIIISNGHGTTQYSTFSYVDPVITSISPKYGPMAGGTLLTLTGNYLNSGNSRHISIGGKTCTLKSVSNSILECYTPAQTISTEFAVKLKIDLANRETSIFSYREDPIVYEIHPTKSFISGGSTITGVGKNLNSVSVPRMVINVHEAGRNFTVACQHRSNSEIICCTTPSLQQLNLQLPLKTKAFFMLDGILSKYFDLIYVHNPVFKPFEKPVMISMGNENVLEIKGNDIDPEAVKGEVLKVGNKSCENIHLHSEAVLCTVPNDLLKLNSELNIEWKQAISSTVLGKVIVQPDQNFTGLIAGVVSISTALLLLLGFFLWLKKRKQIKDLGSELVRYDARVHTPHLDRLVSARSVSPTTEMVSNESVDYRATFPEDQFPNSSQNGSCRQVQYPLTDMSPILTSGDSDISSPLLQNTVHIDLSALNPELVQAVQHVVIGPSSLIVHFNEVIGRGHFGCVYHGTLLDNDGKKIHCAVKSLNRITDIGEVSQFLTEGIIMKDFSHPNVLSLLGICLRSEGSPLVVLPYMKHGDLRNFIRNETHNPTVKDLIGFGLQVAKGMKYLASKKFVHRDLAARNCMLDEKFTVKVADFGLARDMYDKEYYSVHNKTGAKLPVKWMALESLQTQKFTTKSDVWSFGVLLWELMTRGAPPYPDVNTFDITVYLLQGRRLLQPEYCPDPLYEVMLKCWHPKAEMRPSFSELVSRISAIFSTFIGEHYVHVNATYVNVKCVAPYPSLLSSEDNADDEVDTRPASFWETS

B1: Ling-Zhi-8, P14945 1-111 (natural protein)
chain: MSDTALIFRLAWDVKKLSFDYTPNWGRGNPNNFIDTVTFPKVLTDKAYTYRVAVSGRNLGVKPSYAVESDGSQKVNFLEYNSGYGIADTNTIQVFVVDPDTNNDFIIAQWN
modifications: here or on the partner: N-glycans (sites not given)
As to B1, the percent suppression of HGF-FITC binding on the cell surface came out at 30%.
